T1: BCMA on the surface of human myeloma U266 cells (human, UniProt Q02223 1-184)
T1 sequence (looked up): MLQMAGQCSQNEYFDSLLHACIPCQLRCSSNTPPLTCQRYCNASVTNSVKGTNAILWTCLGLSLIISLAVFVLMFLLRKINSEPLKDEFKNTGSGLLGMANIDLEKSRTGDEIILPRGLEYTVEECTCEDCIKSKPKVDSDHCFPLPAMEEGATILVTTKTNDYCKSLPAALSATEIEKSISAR

T2: BCMA on CHOS cells stably expressing BCMA (CHOS-BCMA) (UniProt Q02223 1-184)
T2 sequence (looked up): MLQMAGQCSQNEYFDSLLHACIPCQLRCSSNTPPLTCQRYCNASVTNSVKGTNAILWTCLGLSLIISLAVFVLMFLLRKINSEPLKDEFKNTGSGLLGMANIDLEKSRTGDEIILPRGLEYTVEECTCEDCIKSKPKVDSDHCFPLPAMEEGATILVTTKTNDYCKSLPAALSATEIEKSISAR

T3: recombinant BCMA-His (ACRO Biosystems) (UniProt Q02223 1-54)
T3 construct: also called target antigen BCMA; antigen BCMA; not shown: His tag
T3 sequence (looked up): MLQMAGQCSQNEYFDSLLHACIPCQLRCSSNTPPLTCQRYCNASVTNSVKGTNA

T4: TROP2 (Sino Biological Inc.) (UniProt P09758 27-274)
T4 construct: Specificity control
T4 sequence (looked up): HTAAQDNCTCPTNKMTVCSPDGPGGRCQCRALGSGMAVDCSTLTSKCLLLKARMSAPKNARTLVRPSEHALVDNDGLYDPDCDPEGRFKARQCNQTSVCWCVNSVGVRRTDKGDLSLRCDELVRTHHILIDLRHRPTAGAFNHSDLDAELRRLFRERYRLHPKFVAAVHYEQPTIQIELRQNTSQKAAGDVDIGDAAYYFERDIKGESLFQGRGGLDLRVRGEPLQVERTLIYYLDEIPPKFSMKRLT

T5: AXL (ACRO Biosystems) (UniProt P30530 33-449, limits assumed)
T5 construct: Specificity control
T5 sequence (looked up): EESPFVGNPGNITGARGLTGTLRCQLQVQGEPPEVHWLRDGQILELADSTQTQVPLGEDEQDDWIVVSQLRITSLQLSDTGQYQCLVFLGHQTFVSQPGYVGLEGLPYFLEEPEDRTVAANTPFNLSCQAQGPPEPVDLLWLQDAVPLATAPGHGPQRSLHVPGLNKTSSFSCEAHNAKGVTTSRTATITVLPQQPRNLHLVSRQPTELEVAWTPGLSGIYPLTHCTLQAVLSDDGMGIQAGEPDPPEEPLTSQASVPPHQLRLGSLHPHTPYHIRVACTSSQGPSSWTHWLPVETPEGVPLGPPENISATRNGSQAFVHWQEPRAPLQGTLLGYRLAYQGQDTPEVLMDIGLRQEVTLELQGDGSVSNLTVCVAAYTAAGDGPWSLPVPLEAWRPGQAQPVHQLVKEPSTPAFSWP

T6: CD38 (Sino Biological Inc.) (UniProt P28907 43-300)
T6 construct: Specificity control
T6 sequence (looked up): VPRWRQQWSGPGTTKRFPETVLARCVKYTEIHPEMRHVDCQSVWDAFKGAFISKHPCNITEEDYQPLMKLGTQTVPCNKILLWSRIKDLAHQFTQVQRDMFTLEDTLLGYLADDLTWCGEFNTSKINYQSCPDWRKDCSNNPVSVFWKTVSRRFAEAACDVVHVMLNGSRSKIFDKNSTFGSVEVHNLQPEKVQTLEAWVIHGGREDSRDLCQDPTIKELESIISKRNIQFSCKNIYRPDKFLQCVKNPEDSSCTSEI

T7: Gas6 (R&D) (UniProt Q14393 49-678, limits assumed)
T7 construct: Specificity control
T7 sequence (looked up): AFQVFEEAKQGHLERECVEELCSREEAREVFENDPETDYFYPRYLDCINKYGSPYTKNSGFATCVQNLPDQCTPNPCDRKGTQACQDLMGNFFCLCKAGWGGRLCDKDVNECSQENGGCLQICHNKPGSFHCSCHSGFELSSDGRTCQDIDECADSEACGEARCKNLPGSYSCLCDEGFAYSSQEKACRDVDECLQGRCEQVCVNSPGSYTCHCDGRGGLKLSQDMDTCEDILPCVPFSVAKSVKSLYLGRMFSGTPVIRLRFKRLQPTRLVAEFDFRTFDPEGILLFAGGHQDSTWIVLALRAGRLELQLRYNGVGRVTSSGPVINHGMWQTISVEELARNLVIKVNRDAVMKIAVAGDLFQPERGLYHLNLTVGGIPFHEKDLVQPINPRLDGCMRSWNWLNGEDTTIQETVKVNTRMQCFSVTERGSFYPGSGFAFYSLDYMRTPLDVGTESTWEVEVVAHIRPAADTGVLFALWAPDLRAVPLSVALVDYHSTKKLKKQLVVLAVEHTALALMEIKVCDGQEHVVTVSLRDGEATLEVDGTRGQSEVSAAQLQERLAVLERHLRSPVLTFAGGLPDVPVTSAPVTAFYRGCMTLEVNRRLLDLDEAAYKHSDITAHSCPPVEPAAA

T8: CD19 (Sino Biological Inc.) (UniProt P15391 20-291)
T8 construct: Specificity control
T8 sequence (looked up): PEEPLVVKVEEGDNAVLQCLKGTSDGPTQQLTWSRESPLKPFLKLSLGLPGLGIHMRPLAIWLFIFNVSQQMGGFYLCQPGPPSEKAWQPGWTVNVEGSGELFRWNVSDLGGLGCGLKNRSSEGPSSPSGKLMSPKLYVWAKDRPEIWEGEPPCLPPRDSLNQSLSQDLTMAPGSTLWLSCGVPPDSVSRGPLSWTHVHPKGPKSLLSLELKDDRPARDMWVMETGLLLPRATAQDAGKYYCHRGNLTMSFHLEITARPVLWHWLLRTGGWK


Assays:
[1] = molecular target: T1, BCMA on the surface of human myeloma …; test: cell-based or functional assay
[2] = molecular target: T2, BCMA on CHOS cells stably expressing …; test: cell-based or functional assay
[3] = molecular target: T1, BCMA on the surface of human myeloma …; test: flow cytometry on U266 cells, PE anti-human IgG detection
Procedure: (§1) With human myeloma U266 cells as well as CHOS cells (CHOS-BCMA) stably expressing BCMA constructed by genetic engineering technology as representative cell models, the binding of BCMA on the cell surface to SG1116 was analyzed by flow cytometry. Cells at the logarithmic growth phase were collected, adjusted to a cell density of 5×10⁶ cells/mL, and precooled on ice. The SG1116 antibody was diluted with pre-cooled normal saline containing 2% FBS to 20 μg/ml. 100 μl of cells were taken and added into an equal volume of the above diluted SG1116 antibody, and reacted in dark at 4° C. for 30 min. At the end of the reaction, they were washed twice with pre-cooled normal saline containing 2% FBS (6000 rpm, 45 s). A secondary antibody PE mouse anti-human IgG (BD Pharmingen) was diluted with pre-cooled normal saline containing 2% FBS at a ratio of 1:5. 100 μl of cells were taken and resuspended, and reacted in dark at 4° C. for 30 min. At the end of the reaction, they were washed twice with pre-cooled normal saline containing 2% FBS (6000 rpm, 45 s). The cells were resuspended with 400 μl of 1% (v/v) paraformaldehyde. The binding ability of the antibody to the antigen on the cell surface was analyzed with a flow cytometer (BD Calibur).

[4] = molecular target: T2, BCMA on CHOS cells stably expressing …; test: flow cytometry on CHOS-BCMA cells, PE anti-human IgG detection
Procedure: as §1

[5] = molecular target: T3, recombinant BCMA-His (ACRO Biosystems); test: ELISA, BCMA-His coated at 1 µg/ml, anti-human IgG HRP detection
Procedure: ELISA strips were coated with the target antigen BCMA-His at 1 μg/ml, overnight at 4° C. After washing with PBST, 10% of fetal calf serum was added for blocking at 37° C. for 1 hour. Different concentrations of the antibody SG1116 was added to react at 37° C. for 1 hour. After washing with PBST, horseradish peroxidase-labeled goat anti-human IgG secondary antibody (Goat anti human ([…]), thermo Fisher Scientific) was added to react at 37° C. for 30 minutes. The plate was washed with PBST repeatedly for 5 times, and patted on absorbent paper so as to dry the remaining droplets as much as possible. Each well was added with […] TMB (eBioscience), placed in dark at room temperature (20±5° C.) for 1.5 min. Each well was added with 100 μl of 2N H₂SO₄ stop solution to terminate the reaction of the substrate. The OD values at 450 nm were read with a Microplate reader. The binding ability of the antibody to the target antigen BCMA was analyzed.

[6] = molecular target: T4, TROP2 (Sino Biological Inc.); test: ELISA, proteins coated at 1 ug/ml, HRP goat anti-human IgG, OD450
Procedure: (§2) ELISA strips were coated with milk (Beijing Biomed Biotech Co., Ltd.), BSA (BOVOGEN), CD19 (Sino Biological Inc.), TROP2 (Sino Biological Inc.), BCMA (ACRO Biosystems), CD47 (Sino Biological Inc.), CD38 (Sino Biological Inc.), Gas6 (R&D) and various proteins as well as AXL (ACRO Biosystems), respectively, at 1 μg/ml, overnight at 4° C. After washing with PBST, 10% of fetal calf serum was added for blocking at 37° C. for 1 hour. The antibody SG1116 was added to react at 37° C. for 1 hour. After washing with PBST, horseradish peroxidase-labeled goat anti-human IgG secondary antibody (Goat anti human (HRP), Thermo Fisher Scientific) was added to react at room temperature for 30 minutes. The plate was washed with PBST repeatedly for 5 times, and patted on absorbent paper so as to dry the remaining droplets as much as possible. Each well was added with 100 μl TMB (eBioscience, #85-00-420), placed in dark at room temperature ([…]) for 1.5 min. Each well was added with 100 μl of 2N H₂SO₄ stop solution to terminate the reaction of the substrate. The OD values at 450 nm were read with a Microplate reader. The binding ability of the antibody to protein was analyzed.

AXL (ACRO Biosystems) = molecular target: T5, AXL (ACRO Biosystems); test: as above
Procedure: as §2

[7] = molecular target: T9, CD47 (Sino Biological Inc.) (UniProt Q08722 19-139); test: as above
T9 construct: Specificity control
Procedure: as §2

[8] = molecular target: T6, CD38 (Sino Biological Inc.); test: as above
Procedure: as §2

Gas6 (R&D) = molecular target: T7, Gas6 (R&D); test: as above
Procedure: as §2

BSA (BOVOGEN) = molecular target: T10, BSA (BOVOGEN) (UniProt P02769 25-607); test: as above
T10 construct: Specificity control
Procedure: as §2

[9] = molecular target: T8, CD19 (Sino Biological Inc.); test: as above
Procedure: as §2

[10] = molecular target: T3, recombinant BCMA-His (ACRO Biosystems); test: SPR (BIACORE), antibody captured by anti-human IgG, BCMA as mobile phase 0.15625-20 nM
Procedure: The antibody affinity was analyzed with BIACORE biomacromolecular interaction analyzer (GE Co.). Anti-human IgG antibodies (purchased from GE) were coupled on a chip, and utilized to capture the SG1116 antibody, of which the concentration was set as 3 μg/mL, and the sampling time was 120 seconds; with the antigen BCMA as the mobile phase, a gradient of 8 concentrations (0.15625, 0.3125, 0.625, 1.25, 2.5, 5, 10, 20 nM) was used, and the binding time was 120 seconds; the dissociation time was 300 seconds; each antibody was regenerated using 3 M of magnesium chloride (purchased from GE) for a time period of 30 seconds.

T10 sequence (P02769 25-607 limits assumed): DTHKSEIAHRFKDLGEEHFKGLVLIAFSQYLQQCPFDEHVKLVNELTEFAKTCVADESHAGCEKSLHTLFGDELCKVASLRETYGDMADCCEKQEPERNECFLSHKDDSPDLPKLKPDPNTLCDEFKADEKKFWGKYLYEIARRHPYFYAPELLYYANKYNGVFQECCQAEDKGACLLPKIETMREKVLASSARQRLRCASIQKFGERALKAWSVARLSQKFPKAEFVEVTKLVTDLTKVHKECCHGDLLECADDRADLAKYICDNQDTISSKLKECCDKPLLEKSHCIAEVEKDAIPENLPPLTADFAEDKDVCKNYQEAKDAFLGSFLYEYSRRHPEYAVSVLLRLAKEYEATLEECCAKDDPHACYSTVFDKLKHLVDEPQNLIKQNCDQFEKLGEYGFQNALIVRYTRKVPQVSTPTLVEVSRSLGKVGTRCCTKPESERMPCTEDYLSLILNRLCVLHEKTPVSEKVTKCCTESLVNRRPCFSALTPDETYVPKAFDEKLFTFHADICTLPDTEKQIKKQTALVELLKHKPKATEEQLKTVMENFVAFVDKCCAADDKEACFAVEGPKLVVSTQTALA
T9 sequence (Q08722 19-139 limits assumed): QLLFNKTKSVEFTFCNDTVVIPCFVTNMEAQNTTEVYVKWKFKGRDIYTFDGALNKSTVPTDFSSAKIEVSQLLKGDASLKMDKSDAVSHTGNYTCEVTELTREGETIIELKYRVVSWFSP

| Binder | internalization efficiency EC50 (flow cytometry, surface MFI at 4°C against 37°C) [1] | internalization efficiency EC50 (flow cytometry, surface MFI at 4°C against 37°C) [2] | EC50 [3] | EC50 [4] | EC50 [5] | binding result [6] | binding result (AXL (ACRO Biosystems)) | binding result [7] | binding result [8] | binding result (Gas6 (R&D)) | binding result (BSA (BOVOGEN)) | binding result [9] | Kd [10] | koff [10] | kon [10] | IC50 of inhibition of proliferation (CCK-8, 72 hours) [1] |
| --- | --- | --- | --- | --- | --- | --- | --- | --- | --- | --- | --- | --- | --- | --- | --- | --- |
| SG1116 antibody (antibody, human IgG1, V domains shown, also called antibody SG1116; SGT116) VH: QVQLVQSGPELKKPGETVKISCKASGYTFSRYSMNWVRQAPGKGLEWMGRINTGSGAPIYADDFKGRFTFSVDTSASTAYLVINNLKSEDTASYFCSNDYNYSLDHWGQGTAVTVSS VL: DIVLTQSPPSLAMSLGKRATISCRASESVTILGSHLIYWYQQKPGQPPTLLIQLASNVQTGVPARFSGSGSRTDFTLTIDPVEEDDVAVYYCLQSRTIPRTFGGGTKLEIK | 0.178 µg/mL | 0.00327 µg/mL | 4.29 µg/mL | 0.622 µg/mL | 0.0565 µg/mL | no binding | no binding | no binding | no binding | no binding | no binding | no binding | 1.39 nM | 0.0171 s⁻¹ | 1.23e+07 M⁻¹ s⁻¹ | – |
| immunoconjugate SG1116-DM1 (antibody, V domains shown, maytansine derivative DM1 linked through SMCC; conjugation residues and chain not stated) VH: QVQLVQSGPELKKPGETVKISCKASGYTFSRYSMNWVRQAPGKGLEWMGRINTGSGAPIYADDFKGRFTFSVDTSASTAYLVINNLKSEDTASYFCSNDYNYSLDHWGQGTAVTVSS VL: DIVLTQSPPSLAMSLGKRATISCRASESVTILGSHLIYWYQQKPGQPPTLLIQLASNVQTGVPARFSGSGSRTDFTLTIDPVEEDDVAVYYCLQSRTIPRTFGGGTKLEIK | – | – | – | – | – | – | – | – | – | – | – | – | – | – | – | 0.347 nM |

Source: patent publication US20220306757A1 (HANGZHOU SUMGEN BIOTECH, published 2022)
